Among the data in paper PMC6167435, “Genetic Removal of the CH1 Exon Enables the Production of Heavy Chain-Only IgG in Mice” (Frontiers in Immunology, 2018) are binding result and stoichiometry N values, retold here.

Where a chain is given by its changes, count along the chain named.

Usually stoichiometry N stands for a count of units in the complex or per binding partner.

The labels stand for the following.
B1: 3A-1 (VHH)
VHH: EVKLVESGGDLVKPGGSLKLSCAASGFTFSSYGMSWIRQTPDKRLEWVATISSGGSYTYYPDSVKGRFTISRDNAKNTLYLQMSSLKSEDTAMYYCARRGRYDDTMDYWGQGTTVTVSS
B2: 3A-31 (VHH)
VHH: B1 VHH with I37V, N77S, R101K, V115L
B3: 3A-20 (VHH)
VHH: B1 VHH with K3Q, V5E
B4: 3A-2 (VHH)
VHH: B1 VHH with V115L
B5: 3A-3 (VHH)
VHH: B1 VHH with K76E, T114S, V115L
B6: 3A-6 (VHH)
VHH: B1 VHH with A23V
B7: 3A-9 (VHH)
VHH: B1 VHH with S84G, T114S, V115L

The target of the first experiment is ovalbumin (Gallus gallus (chicken), , UniProt P01012).
Sequence of ovalbumin (P01012 whole entry): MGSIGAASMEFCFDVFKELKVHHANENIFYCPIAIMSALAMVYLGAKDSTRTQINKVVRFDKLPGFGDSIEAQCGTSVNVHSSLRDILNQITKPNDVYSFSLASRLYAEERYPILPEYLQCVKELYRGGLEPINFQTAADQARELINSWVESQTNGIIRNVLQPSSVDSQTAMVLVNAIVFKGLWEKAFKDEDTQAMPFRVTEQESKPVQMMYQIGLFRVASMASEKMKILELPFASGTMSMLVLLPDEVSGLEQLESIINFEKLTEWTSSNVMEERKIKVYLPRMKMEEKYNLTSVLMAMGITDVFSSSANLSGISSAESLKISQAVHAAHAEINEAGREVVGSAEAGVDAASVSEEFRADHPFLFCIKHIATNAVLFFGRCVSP
Experiment: not given
Regarding B1, the binding result is listed as “binds”.

For the molecule B2, the binding result was “binds”.

Regarding B3, the binding result was “binds”.

For B4, the binding result is “binds”.

B5: the binding result is “binds”.

B6: the binding result is listed as “binds”.

As to B7, the binding result is reported as “binds”.

The target of a further experiment is IgG1 heavy chain of HG1 mice (γ1 CH1 exon deleted) (mouse (endogenous in serum of HG1 mice)). The experiment in a line: SDS-PAGE under non-reducing conditions with Western blotting; serum of HG1 and WT mice; detected with HRP-conjugated goat anti-mouse IgG1 heavy chain; association judged from molecular weights (covalent association).
Molecule “IgG1 heavy chain of HG1 mice (γ1 CH1 exon deleted)” displayed a stoichiometry N of 2.
